Source: US6566088

How the values were obtained:
[1] = target: T1, Biotin-Acp-DLDLEALAPYIPADDDFQL, human HIF-1a ODD peptide, wild type, not hydroxylated
T1 chain: DLDLEALAPYIPADDDFQL

[2] = target: T2, Biotinylated human HIF-1a ODD peptide with L562A, not hydroxylated
T2 chain: DLDLEAAAPYIPADDDFQL

[3] = target: T3, Biotinylated human HIF-1a ODD peptide with Y565A, not hydroxylated
T3 chain: DLDLEALAPAIPADDDFQL

[4] = target: T4, Biotinylated human HIF-1a ODD peptide with A563G, not hydroxylated
T4 chain: DLDLEALGPYIPADDDFQL

[5] = target: T5, Biotinylated human HIF-1a ODD peptide with Pro567 to Gly, not hydroxylated
T5 chain: DLDLEALAPYIGADDDFQL

B1: human HPH 1 H196A with carboxy-terminal V5-HIS tag (protein)
chain: MPLGHIMRLDLEKIALEYIVPCLHEVGFCYLDNFLGEVVGDCVLERVKQLHCTGALRDGQLAGPRAGVSKRHLRGDQITWIGGNEEGCEAISFLLSLIDRLVLYCGSRLGKYYVKERSKAMVACYPGNGTGYVRHVDNPNGDGRCITCIYYLNKNWDAKLHGGILRIFPEGKSFIADVEPIFDRLLFFWSDRRNPAEVQPSYATRYAMTVWYFDAEERAEAKKKFRNLTRKTESALTED
prolyl hydroxylase activity [1]: Each of these mutations eliminated the prolyl hydroxylase activity of the native HPH 1 enzyme

B2: recombinant human HPH 2 with amino-terminal MBP, purified from E. coli (protein)
chain: ANDSGGPGGPSPSERDRQYCELCGKMENLLRCSRCRSSFYCCKEHQRQDWKKHKLVCQGSEGALGHGVGPHQHSGPAPPAAVPPPRAGAREPRKAAARRDNASGDAAKGKVKAKPPADPAAAASPCRAAAGGQGSAVAAEAEPGKEEPPARSSLFQEKANLYPPSNTPGDALSPGGGLRPNGQTKPLPALKLALEYIVPCMNKHGICVVDDFLGKETGQQIGDEVRALHDTGKFTDGQLVSQKSDSSKDIRGDKITWIEGKEPGCETIGLLMSSMDDLIRHCNGKLGSYKINGRTKAMVACYPGNGTGYVRHVDNPNGDGRCVTCIYYLNKDWDAKVSGGILRIFPEGKAQFADIEPKFDRLLFFWSDRRNPHEVQPAYATRYAITVWYFDADERARAKVKYLTGEKGVRVELNKPSDSVGKDVF
prolyl hydroxylation of variant peptide substrates [2]: unable to modify peptides containing the L562A, A563G or Y565A mutations
prolyl hydroxylase activity [1]: Purified HPH 2 was able to hydroxylate the HIF-1a peptide substrate
prolyl hydroxylation of variant peptide substrates [3]: unable to modify peptides containing the L562A, A563G or Y565A mutations
prolyl hydroxylation of variant peptide substrates [4]: unable to modify peptides containing the L562A, A563G or Y565A mutations
prolyl hydroxylation of variant peptide substrates [5]: a peptide containing a mutation of Pro^567 to glycine served as an equal, if not better, substrate for the human HPH enzymes

B3: human HIF prolyl hydroxylase 1 (HPH 1) with carboxy-terminal V5-HIS tag (protein)
chain: MPLGHIMRLDLEKIALEYIVPCLHEVGFCYLDNFLGEVVGDCVLERVKQLHCTGALRDGQLAGPRAGVSKRHLRGDQITWIGGNEEGCEAISFLLSLIDRLVLYCGSRLGKYYVKERSKAMVACYPGNGTGYVRHVDNPNGDGRCITCIYYLNKNWDAKLHGGILRIFPEGKSFIADVEPIFDRLLFFWSDRRNPHEVQPSYATRYAMTVWYFDAEERAEAKKKFRNLTRKTESALTED
prolyl hydroxylation of variant peptide substrates [2]: unable to modify peptides containing the L562A, A563G or Y565A mutations
prolyl hydroxylase activity, [^35S]-pVHL pull-down assay [1]: Of the five candidate enzymes assayed, only one, HPH-1, was able to enhance pVHL association with the biotinylated peptide
prolyl hydroxylation of variant peptide substrates [3]: unable to modify peptides containing the L562A, A563G or Y565A mutations
prolyl hydroxylation of variant peptide substrates [4]: unable to modify peptides containing the L562A, A563G or Y565A mutations
prolyl hydroxylation of variant peptide substrates [5]: a peptide containing a mutation of Pro^567 to glycine served as an equal, if not better, substrate for the human HPH enzymes

B4: human HPH 2 (splice variant) with carboxy-terminal V5-HIS tag, in vitro translated (protein)
chain: ANDSGGPGGPSPSERDRQYCELCGKMENLLRCSRCRSSFYCCKEHQRQDWKKHKLVCQGSEGALGHGVGPHQHSGPAPPAAVPPPRAGAREPRKAAARRDNASGDAAKGKVKAKPPADPAAAASPCRAAAGGQGSAVAAEAEPGKEEPPARSSLFQEKANLYPPSNTPGDALSPGGGLRPNGQTKPLPALKLALEYIVPCMNKHGICVVDDFLGKETGQQIGDEVRALHDTGKFTDGQLVSQKSDSSKDIRGDKITWIEGKEPGCETIGLLMSSMDDLIRHCNGKLGSYKINGRTKAMVACYPGNGTGYVRHVDNPNGDGRCVTCIYYLNKDWDAKVSGGILRIFPEGKAQFADIEPKFDRLLFFWSDRRNPHEVQPAYATRYAITVWYFDADERARAKVKYLTGEKGVRVELNKPSDSVGKDVF
prolyl hydroxylase activity, [^35S]-pVHL pull-down assay [1]: both of these enzymes were observed to catalyze the hydroxylation of the key proline residue in the HIF-1a peptide substrate

B5: human HPH 1 H135A with carboxy-terminal V5-HIS tag (protein)
chain: MPLGHIMRLDLEKIALEYIVPCLHEVGFCYLDNFLGEVVGDCVLERVKQLHCTGALRDGQLAGPRAGVSKRHLRGDQITWIGGNEEGCEAISFLLSLIDRLVLYCGSRLGKYYVKERSKAMVACYPGNGTGYVRAVDNPNGDGRCITCIYYLNKNWDAKLHGGILRIFPEGKSFIADVEPIFDRLLFFWSDRRNPHEVQPSYATRYAMTVWYFDAEERAEAKKKFRNLTRKTESALTED
prolyl hydroxylase activity [1]: Each of these mutations eliminated the prolyl hydroxylase activity of the native HPH 1 enzyme

B6: human HPH 1 D137A with carboxy-terminal V5-HIS tag (protein)
chain: MPLGHIMRLDLEKIALEYIVPCLHEVGFCYLDNFLGEVVGDCVLERVKQLHCTGALRDGQLAGPRAGVSKRHLRGDQITWIGGNEEGCEAISFLLSLIDRLVLYCGSRLGKYYVKERSKAMVACYPGNGTGYVRHVANPNGDGRCITCIYYLNKNWDAKLHGGILRIFPEGKSFIADVEPIFDRLLFFWSDRRNPHEVQPSYATRYAMTVWYFDAEERAEAKKKFRNLTRKTESALTED
prolyl hydroxylase activity [1]: Each of these mutations eliminated the prolyl hydroxylase activity of the native HPH 1 enzyme
